Source: US20250269047A1 (MABWELL SHANGHAI BIOSCIENCE, published 2025)
Where two headings read alike, the source gives them in different places.

T1: recombinant human B7-H3-his extracellular domain protein (UniProtKB-Q5ZPR3, 1 aa-461 aa) (human, UniProt Q5ZPR3 29-461)
T1 construct: range 1-461; The printed range 1-461 starts at residue 1 and so includes the signal peptide; also called Human B7-H3 ECD; recombinant human B7-H3-his protein; not shown: C-terminal his tag
T1 sequence (looked up): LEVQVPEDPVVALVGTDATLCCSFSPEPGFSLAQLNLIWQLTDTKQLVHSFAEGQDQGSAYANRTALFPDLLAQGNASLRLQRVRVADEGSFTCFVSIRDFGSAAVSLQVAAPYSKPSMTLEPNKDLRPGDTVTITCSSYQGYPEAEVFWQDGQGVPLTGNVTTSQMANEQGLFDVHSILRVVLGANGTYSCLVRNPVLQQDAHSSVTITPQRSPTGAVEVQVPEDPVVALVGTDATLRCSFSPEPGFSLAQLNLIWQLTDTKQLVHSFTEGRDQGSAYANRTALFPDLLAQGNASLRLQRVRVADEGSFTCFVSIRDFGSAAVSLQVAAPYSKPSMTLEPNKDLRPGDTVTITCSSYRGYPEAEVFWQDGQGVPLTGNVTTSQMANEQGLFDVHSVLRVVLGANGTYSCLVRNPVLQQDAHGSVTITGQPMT


How the values were obtained:
[1] = molecular target: T1, recombinant human B7-H3-his …; test: BLI (Octet QKe), antibody on AHC biosensor, B7-H3-his 60 nM in solution
Method: Affinities of the antibodies were determined by an assay including capturing Fc fragments of the antibodies with anti-human IgG Fc capture (AHC) biosensors using Octet QKe system instrument from Fortebio. For the assay, each of the chimeric antibodies ch9B11, ch10B4, ch17A3 and the control antibody Enoblituzumab was diluted to 4 μg/ml in PBS, and was allowed to flow through the surface of an AHC biosensor (Cat.: 18-0015, PALL) for 120 s. Recombinant human B7-H3 extracellular domain protein (Accession No.: UniProtKB-Q5ZPR3, 1 aa-461 aa, C-his tag) (60 nM) was used as a mobile phase. The association time was 300 s and the dissociation time was 300 s. When the assay was finished, data from which the response values of blank control had been deducted were fitted to a 1:1 Langmuir binding model using software, and then kinetic constants for antigen-antibody binding were calculated.

[2] = molecular target: T1, recombinant human B7-H3-his …; test: as above; remark: listed apart in the source
Method: According to the mutation designs, site-directed mutagenesis was performed in the plasmids expressing the humanized light chains and heavy chains respectively using StarMut gene Site-directed Mutagenesis Kit (Cat.: T111-01, GenStar). The mutated plasmids were transformed into E. coli cells for expansion, and plasmids expressing the humanized and mutated light and heavy chains based on the antibodies 9B11, 10B4, and 17A3 were obtained. […] 5-6 days after cell transfection, culture supernatants were purified through ProA affinity chromatography column to obtain different humanized antibodies. Affinities of the antibodies were determined by an assay including capturing Fc fragments of the antibodies with anti-human IgG Fc capture (AHC) biosensors using Octet QKe system instrument from Fortebio. For the assay, each of the humanized antibodies and the chimeric antibodies based on the antibodies 9B11, 10B4, and 17A3 was diluted to 4 μg/ml in PBS, and was allowed to flow through the surface of an AHC biosensor (Cat.: 18-0015, PALL) for 300 s. Recombinant human B7-H3-his protein (Accession No.: UniProtKB-Q5ZPR3, 1 aa-461 aa) was used as a mobile phase, and its concentration was 60 nM. The association time was 100 s and the dissociation time was 300 s. When the assay was finished, data from which the response values of blank control had been deducted were fitted to a 1:1 Langmuir binding model using software, and then kinetic constants for antigen-antibody binding were calculated. The light and heavy chain combinations and the affinity constant KD values of the humanized and the mutant antibodies based on the antibodies 9B11, 10B4, and 17A3 are shown in Tables 6-8 respectively.

Kd [1] [nM]	koff [1] [s⁻¹]	kon [1] [M⁻¹ s⁻¹]	Kd [2] [nM]	Binder
0.435	0.000262	602000	0.355	ch10B4 (antibody, human IgG1, V domains shown, also called chimeric antibody 10B4) VH: EVQLQQSGPELVKPGASVKISCKTSGYTFTEYIMHWVKQSHGKSLEWIGGINPNNGGTTYNQKFKGKATLTVDKSSSTAYMELRSLTSEDSAVYYCARKGKDYFDWYFDVWGAGTTVTVSS VL: QIVLTQSPTIMSASPGEKVTMTCSASSSVSYMHWYQQKSGTSPKRWIYDTSKLASGVPARFSGSGSGTSYSLTISSMEAEDAATYYCQQWSSNPLTFGAGTKLELK
			0.433	hz17A3-21 (antibody, human IgG1, kappa, V domains shown, hz17A3_VH4 + hz17A3_VL8; human IgG1, kappa) VH: EVQLVQSGAEVKKPGASVKVSCKASGYTFTDYALHWVRQAPGQGLEWMGLISTYSSNTNYNQKFKDRVTMTRDTSISTAYMELSRLRSEDTAVYYCARGITAVVGTRYYAMDYWGQGTLVTVSS VL: EIVLTQSPDFQSVTPKEKVTITCRASQSISNNLHWYQQKPDQSPKLLIKYTSQNISGVPSRFSGSGSGTDFTLTINSLEAEDAATYYCQQSYSWPLTFGGGTKVEIKR
0.12	0.000141	1.17e+06	0.0998	ch9B11 (antibody, human IgG1, V domains shown, also called chimeric antibody 9B11) VH: EVQLQQSGPELVRPGVSVKISCKGSGYSFTDYAIHWVKQSHAMSLEWIGIINTYYGNTNYNQKFKGKATMTVDKSSSTAYMELARLTSADSAIYYCARSTTTATFYWYFDVWGAGTTVSVSS VL: DIVLTQSPVTLSVTPGDSVSLSCRASQSINNNLHWYQQKPHESPRLLIKYASQSISGIPSRFSGSGSGTDFTLSFNSVETEDFGMYFCQQSHSWPYTFGGGTKLEIK

Second part, the binder before the results:

Binder	Kd [1] [nM]	koff [1] [s⁻¹]	kon [1] [M⁻¹ s⁻¹]	Kd [2] [nM]
hz17A3-20 (antibody, human IgG1, kappa, V domains shown, hz17A3_VH3 + hz17A3_VL8; human IgG1, kappa) VH: EVQLVQSGAEVKKPGASVKVSCKASGYTFTDYALHWVRQAPGQGLEWMGLINTYSSNTNYNQKFKDRVTMTRDTSISTAYMELSRLRSEDTAVYYCARGITAVVGTRYYAMDYWGQGTLVTVSS VL: EIVLTQSPDFQSVTPKEKVTITCRASQSISNNLHWYQQKPDQSPKLLIKYTSQNISGVPSRFSGSGSGTDFTLTINSLEAEDAATYYCQQSYSWPLTFGGGTKVEIKR				0.289
hz17A3-23 (antibody, human IgG1, kappa, V domains shown, hz17A3_VH3 + hz17A3_VL9; human IgG1, kappa) VH: EVQLVQSGAEVKKPGASVKVSCKASGYTFTDYALHWVRQAPGQGLEWMGLINTYSSNTNYNQKFKDRVTMTRDTSISTAYMELSRLRSEDTAVYYCARGITAVVGTRYYAMDYWGQGTLVTVSS VL: EIVLTQSPDFQSVTPKEKVTITCRASQSISNNLHWYQQKPDQSPKLLIYYTSQNISGVPSRFSGSGSGTDFTLTINSLEAEDAATYFCQQSYSWPLTFGGGTKVEIKR				2.58
hz17A3-3 (antibody, human IgG1, kappa, V domains shown, hz17A3_VH1 + hz17A3_VL2; human IgG1, kappa) VH: QVQLVQSGAEVKKPGASVKVSCKASGYTFTDYALHWVRQAPGQGLEWMGLINTYSSNTNYNQKFKDRVTMTRDTSISTAYMELSRLRSDDTAVYYCARGITAVVGTRYYAMDYWGQGTLVTVSS VL: EIVLTQSPDFQSVTPKEKVTITCRASQSISNNLHWYQQKPDQSPKLLIYYTSQNISGVPSRFSGSGSGTDFTLTINSLEAEDAATYYCQQSYSWPLTFGGGTKVEIKR				0.598
hz17A3-25 (antibody, human IgG1, kappa, V domains shown, hz17A3_VH5 + hz17A3_VL9; human IgG1, kappa) VH: EVQLVQSGAEVKKPGASVKVSCKASGYTFTDYALHWVRQAPGQGLEWMGLINTYSSSTNYNQKFKDRVTMTRDTSISTAYMELSRLRSEDTAVYYCARGITAVVGTRYYAMDYWGQGTLVTVSS VL: EIVLTQSPDFQSVTPKEKVTITCRASQSISNNLHWYQQKPDQSPKLLIYYTSQNISGVPSRFSGSGSGTDFTLTINSLEAEDAATYFCQQSYSWPLTFGGGTKVEIKR				4.88
hz17A3-22 (antibody, human IgG1, kappa, V domains shown, hz17A3_VH5 + hz17A3_VL8; human IgG1, kappa) VH: EVQLVQSGAEVKKPGASVKVSCKASGYTFTDYALHWVRQAPGQGLEWMGLINTYSSSTNYNQKFKDRVTMTRDTSISTAYMELSRLRSEDTAVYYCARGITAVVGTRYYAMDYWGQGTLVTVSS VL: EIVLTQSPDFQSVTPKEKVTITCRASQSISNNLHWYQQKPDQSPKLLIKYTSQNISGVPSRFSGSGSGTDFTLTINSLEAEDAATYYCQQSYSWPLTFGGGTKVEIKR				0.479
hz17A3-24 (antibody, human IgG1, kappa, V domains shown, hz17A3_VH4 + hz17A3_VL9; human IgG1, kappa) VH: EVQLVQSGAEVKKPGASVKVSCKASGYTFTDYALHWVRQAPGQGLEWMGLISTYSSNTNYNQKFKDRVTMTRDTSISTAYMELSRLRSEDTAVYYCARGITAVVGTRYYAMDYWGQGTLVTVSS VL: EIVLTQSPDFQSVTPKEKVTITCRASQSISNNLHWYQQKPDQSPKLLIYYTSQNISGVPSRFSGSGSGTDFTLTINSLEAEDAATYFCQQSYSWPLTFGGGTKVEIKR				1.91
hz17A3-4 (antibody, human IgG1, kappa, V domains shown, hz17A3_VH2 + hz17A3_VL2; human IgG1, kappa) VH: QVQLVQSGAEVKKPGASVKVSCKASGYTFTDYALHWVRQAPGQGLEWIGLINTYSSNTNYNQKFKDRVTMTRDTSISTAYMELSRLRSDDTAVYYCARGITAVVGTRYYAMDYWGQGTLVTVSS VL: EIVLTQSPDFQSVTPKEKVTITCRASQSISNNLHWYQQKPDQSPKLLIYYTSQNISGVPSRFSGSGSGTDFTLTINSLEAEDAATYYCQQSYSWPLTFGGGTKVEIKR				0.899
ch17A3 (antibody, human IgG1, V domains shown, also called chimeric antibody 17A3) VH: QVQLQQSGPELVRPGVSVKISCKGSGYTFTDYALHWVKQSHAKSPQWIGLINTYSSNTNYNQKFKDKATMTVDKSSSTAYMELARLTSEDSAIYYCARGITAVVGTRYYAMDYWGQGTSVTVSS VL: NIVLTQSPTTLSVTPGDTVSLSCRASQSISNNLHWYQQRSHESPRLIIKYTSQNISGIPSRFSGSGSGTDFTLSINSVETEDFGMYFCQQSYSWPLTFGAGTKLELKR	0.269	0.000259	965000	0.367
